Source: US12391762B2, “Methods and compositions relating to GLP1R variants” (Twist Bioscience Corporation, priority 2020, dated 2025)
Positions count from the first letter of the chain named.

B1: GLP1R221-084: GLP1R-221 variant, optimized from GLP1R-3 (antibody, V domains shown)
VH: QVQLVESGGGVVQPGRSLRLSCAASGFAFSNYGMHWVRQAPGKGLEWVAVISSDENNKYYADSVKGRFTISRDNSKNTLYLQMNSLRAEDTAVYYCAKHMSMQEGAVTGEMQAAKEFIAWLVKGRVRADLVGDAFDVWGQGTLVTVSS
VL: QSVLTQPPSVSAAPGQKVTISCSGSSSNIADNYVSWYQQLPGTAPKLLIYENNRRPSGIPDRFSGSKSGTSATLGITGLQTGDEADYYCGTWDVSLSVGMFGGGTKLTVL
B2: GLP1R221-009: GLP1R-221 variant, optimized from GLP1R-3 (antibody, V domains shown)
VH: B1 VH with A28I, S53D, D54E, E55G, N56S, E110A, M111G
VL: B1 VL with A30G, D31N, N32Q, E51D, N52D, N53H, R54K, V94T, M100E
B3: GLP1R221-017: GLP1R-221 variant, optimized from GLP1R-3 (antibody, V domains shown)
VH: B1 VH with A28T, N31D, M34V, V50F, S53Y, N56S, M111Y
VL: QSVLTQPPSVSAAPGQKVTISCSGSSSNIGNTYVSWYQQLPGTAPKLLIYDDYKRPSGIPDRFSGSKSGTSATLGITGLQTGDEADYYCATWDATLNTGVFGGGTKLTVL
B4: GLP1R221-092: GLP1R-221 variant, optimized from GLP1R-3 (antibody, V domains shown)
VH: B1 VH with A28I, S30N, V50F, S53Y, D54G, E55G, N56S, M111G, A114V
VL: B1 VL with S25T, S26T, D31N, Y33F, E51D, R54K, S57P, V94T
B5: GLP1R221-066: GLP1R-221 variant, optimized from GLP1R-3 (antibody, V domains shown)
VH: B1 VH with A28T, S30N, G33A, S53Y, E55R, N56S, K58E, M111G, A114I
VL: B1 VL with A30G, D31N, V34L, R54K, T91I, V94R, V98A, G99W, M100V
B6: GLP1R221-033: GLP1R-221 variant, optimized from GLP1R-3 (antibody, V domains shown)
VH: B1 VH with A28S, G33A, S53H, E55R, N56S, M111G, E116D
VL: B3 VL with T32E, D52N, Y53N, P56V, A94T, T95S, T98V
B7: GLP1R221-034: GLP1R-221 variant, optimized from GLP1R-3 (antibody, V domains shown)
VH: B1 VH with A28P, S53H, E55R, N56S, M111G, A114V
VL: B3 VL with T32N, Y33P, D51E, D52N, Y53D, K54N, A94R, T95G, N97S
B8: GLP1R221-076: GLP1R-221 variant, optimized from GLP1R-3 (antibody, V domains shown)
VH: B1 VH with A28T, S30N, G33P, S53Y, N56T, M111G, R125I
VL: QSVLTQPPSVSAAPGQKVTISCSGTSSNIGNNDVSWYQQLPGTAPKLLIYENNKRHSGIPDRFSGSKSGTSATLGITGLQTGDEADYYCLTWDHSLTAYVFGGGTKLTVL
B9: GLP1R221-075: GLP1R-221 variant, optimized from GLP1R-3 (antibody, V domains shown)
VH: B1 VH with A28T, G33P, S53Y, N56T, M111G, R125I
VL: B8 VL with T25S, S26G, E51D, N53D, H56P, S57A, L90G, H94T, T97S, A98N
B10: GLP1R221-065: GLP1R-221 variant, optimized from GLP1R-3 (antibody, V domains shown)
VH: B1 VH with A28T, S30N, G33A, S53Y, E55R, N56S, K58E, E110D, M111G
VL: B1 VL with S25T, S26T, D31N, Y33F, E51D, N52H, R54K, V94T, V98A, M100A
B11: GLP1R222-056: GLP1R-222 variant, optimized from GLP1R-3 (antibody, V domains shown)
VH: B1 VH with A28P, N31S, G33A, S53Y, E55R, N56S, E110Y, M111G, R125F
VL: B1 VL with A30G, D31S, V34I, E51D, N53D, R54K, S57A, V94T, M100E
B12: GLP1R222-012: GLP1R-222 variant, optimized from GLP1R-3 (antibody, V domains shown)
VH: B1 VH with A28T, S30N, S53D, D54E, E55G, N56S, E110V, M111G
VL: B1 VL with A30G, D31N, Y33D, E51D, N52D, N53D, R54K, V94T, M100E
B13: GLP1R222-082: GLP1R-222 variant, optimized from GLP1R-3 (antibody, V domains shown)
VH: B1 VH with A28T, N31A, G33S, V50L, S53Y, E55A, N56T, M111F
VL: B1 VL with A30G, D31S, N32K, E51D, R54K, V94I, L96P, V98A, G99W, M100V
B14: GLP1R222-090: GLP1R-222 variant, optimized from GLP1R-3 (antibody, V domains shown)
VH: B1 VH with A28S, N31D, M34I, V50L, S53Y, D54E, E55G, N56S, M111K
VL: B1 VL with E51D, R54K, P56A, G90A, V94N, S95R, V98A, M100V
B15: GLP1R222-052: GLP1R-222 variant, optimized from GLP1R-3 (antibody, V domains shown)
VH: B1 VH with A28T, S30N, G33P, S53Y, N56S, E110G, M111G
VL: B8 VL with T25S, N31K, N32R, D33S, E51D, H56A, L90V, H94R, T97S, Y99G
B16: GLP1R222-073: GLP1R-222 variant, optimized from GLP1R-3 (antibody, V domains shown)
VH: B1 VH with A28T, S30R, N31D, V50F, S52R, S53Y, N56I, M111G, K123G
VL: B3 VL with S26G, T32N, Y33D, D52N, Y53N, P56A, A90G, A94R, T95G, L96P
B17: GLP1R222-014: GLP1R-222 variant, optimized from GLP1R-3 (antibody, V domains shown)
VH: B1 VH with A49S, V50F, S53Y, N56S, S85N, M111W
VL: B8 VL with T25S, N32H, E51D, L90G, H94T, T97S, Y99G
B18: GLP1R222-023: GLP1R-222 variant, optimized from GLP1R-3 (antibody, V domains shown)
VH: B1 VH with A28S, N31D, V50F, S53Y, E55A, M111W
VL: B3 VL with T32N, Y33D, D51E, D52N, Y53T, A90G, T95G, N97S
B19: GLP1R222-081: GLP1R-222 variant, optimized from GLP1R-3 (antibody, V domains shown)
VH: B1 VH with A28T, S30D, G33A, M34L, V50L, S53Y, E55A, N56G, M111G, R125F
VL: QSVLTQPPSVSAAPGQKVTISCSGSSSNIGSDYVSWYQQLPGTAPKLLIYDNNKRSSGIPDRFSGSKSGTSATLGITGLQTGDEADYYCGTWDESLRSWVFGGGTKLTVL

Each molecule was assayed on CHO-parent cells (assay: Flow cytometry binding assay on CHO-parent cells (background binding)). Settings: Table 6C; GLP1R-221 variants.
Set-up: species or system Chinese Hamster
Protocol: GLP-1R IgG clones were tested in a binding assay coupled to flow cytometry analysis as follows: FLAG-GLP-1R-GFP expressing CHO cells (CHO-GLP-1R) and CHO-parent cells were incubated with 100 nM IgG for 1 h on ice, washed three times and incubated with Alexa 647 conjugated goat-anti-human antibody (1:200) (Jackson ImmunoResearch Laboratories, 109-605-044) for 30 min on ice, followed by three washes, centrifuging to pellet the cells between each washing step. All incubations and washes were in buffer containing PBS+1% BSA. For titrations, IgG was serially diluted 1:3 starting from 100 nM down to 0.046 nM. Cells were analyzed by flow cytometry and hits (a hit is an IgG that specifically binds to CHO-GLP-1R) were identified by measuring the GFP signal against the Alexa 647 signal. Flow cytometry data of binding assays with 100 nM IgG are presented as dot plots. Analyses of binding assays with IgG titrations are presented as binding curves plotting IgG concentrations against MFI (mean fluorescence intensity).
B1 was tested, and the “Median RL1-H of Parent Singlets” value was 207.
B2 was tested, and the “Median RL1-H of Parent Singlets” value was 197.
In the case of B3, the “Median RL1-H of Parent Singlets” value is reported as 162.
With B4 the “Median RL1-H of Parent Singlets” value was 326.
For B5, the “Median RL1-H of Parent Singlets” value was 240.
For B6, the “Median RL1-H of Parent Singlets” value was 236.
In the case of B7, the “Median RL1-H of Parent Singlets” value is reported as 314.
B8 was tested, and the “Median RL1-H of Parent Singlets” value was 316.
For B9, the “Median RL1-H of Parent Singlets” value was 206.
B10 was tested, and the “Median RL1-H of Parent Singlets” value was 298.

Same assay, conditions: Table 6D; GLP1R-222 variants
With B11 the “Median RL1-H of Parent Singlets” value was 230.
For B12, the “Median RL1-H of Parent Singlets” value was 290.5.
With B13 the “Median RL1-H of Parent Singlets” value was 315.
With B14 the “Median RL1-H of Parent Singlets” value was 432.
B15 was tested, and the “Median RL1-H of Parent Singlets” value was 27565.5.
For B16, the “Median RL1-H of Parent Singlets” value was 229.
With B17 the “Median RL1-H of Parent Singlets” value was 299.
B18 was tested, and the “Median RL1-H of Parent Singlets” value was 310.
In the case of B19, the “Median RL1-H of Parent Singlets” value is reported as 260.

Same assay, conditions: Table 6E; IgG titration
For B1, the “Bmax CHO Parent” value was 266.6.
B2 was tested, and the “Bmax CHO Parent” value was 267.4.
With B3 the “Bmax CHO Parent” value was 228.7.
For B4, the “Bmax CHO Parent” value was 291.2.
For B5, the “Bmax CHO Parent” value was 112.1.
For B6, the “Bmax CHO Parent” value was 146.
B7 was tested, and the “Bmax CHO Parent” value was 279.8.
In the case of B8, the “Bmax CHO Parent” value is reported as 183.2.
With B9 the “Bmax CHO Parent” value was 234.
For B10, the “Bmax CHO Parent” value was 261.9.

Same assay, conditions: Table 6F; IgG titration
B11 was tested, and the “Bmax CHO Parent” value was 237.5.
With B12 the “Bmax CHO Parent” value was 340.6.
For B13, the “Bmax CHO Parent” value was 305.
B14 was tested, and the “Bmax CHO Parent” value was 413.4.
In the case of B15, the “Bmax CHO Parent” value is reported as 47529.
B16 was tested, and the “Bmax CHO Parent” value was 228.4.
For B17, the “Bmax CHO Parent” value was 336.4.
B18 was tested, and the “Bmax CHO Parent” value was 237.9 and the EC50 was 89.4 nM.
In the case of B19, the “Bmax CHO Parent” value is reported as 243.4.
